In this test the target is STAT3 (UniProt P40763). Briefly: co-immunoprecipitation, Flag/Myc tags, Western blot. The conditions noted are these: reference: wild-type PLSCR1-2Flag; sites Y69,Y74. For orientation: Immunoblotting shows a protein as a band on a membrane.

Regarding “PLSCR1 (from UniProt O15162) PLSCR1-Y69,74F-2Flag”, the “binding against the reference” value is “weaker”.

The record behind these values is article PMC7150476.
